Like-named read-outs stand apart in the source and are kept apart here. Each block holds one binder with its values, some of them ahead of it.
How the values were obtained:
[1] = molecular target: PP2A:B55 holoenzyme (PP2Aa:B55:PP2Ac), purified, active, methylated on PP2Ac L309 (UniProt P30153)
[2] = molecular target: PP2A:B55 holoenzyme (PP2Aa:B55:PP2Ac), purified, active, methylated on PP2Ac L309 (UniProt P30153); remark: listed apart in the source

Chain of UniProt P30153 (P30153 9-589, chain 1 of 3): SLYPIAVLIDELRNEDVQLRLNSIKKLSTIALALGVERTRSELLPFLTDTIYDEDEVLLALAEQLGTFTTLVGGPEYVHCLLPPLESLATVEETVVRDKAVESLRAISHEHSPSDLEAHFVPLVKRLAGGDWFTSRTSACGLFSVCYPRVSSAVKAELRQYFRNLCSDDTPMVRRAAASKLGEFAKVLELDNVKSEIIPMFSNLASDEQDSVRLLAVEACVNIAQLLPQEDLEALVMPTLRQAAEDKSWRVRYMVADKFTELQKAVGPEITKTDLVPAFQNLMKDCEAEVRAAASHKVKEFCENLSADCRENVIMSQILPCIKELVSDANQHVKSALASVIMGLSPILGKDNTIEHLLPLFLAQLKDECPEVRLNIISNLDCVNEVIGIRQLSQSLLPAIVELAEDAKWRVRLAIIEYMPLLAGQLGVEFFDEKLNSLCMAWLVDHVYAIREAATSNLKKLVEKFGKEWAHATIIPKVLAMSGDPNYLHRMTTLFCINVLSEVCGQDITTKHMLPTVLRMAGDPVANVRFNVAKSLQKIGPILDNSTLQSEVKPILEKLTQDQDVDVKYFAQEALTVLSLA
Chain of UniProt P30153 (P63151 whole entry, chain 2 of 3, further chain): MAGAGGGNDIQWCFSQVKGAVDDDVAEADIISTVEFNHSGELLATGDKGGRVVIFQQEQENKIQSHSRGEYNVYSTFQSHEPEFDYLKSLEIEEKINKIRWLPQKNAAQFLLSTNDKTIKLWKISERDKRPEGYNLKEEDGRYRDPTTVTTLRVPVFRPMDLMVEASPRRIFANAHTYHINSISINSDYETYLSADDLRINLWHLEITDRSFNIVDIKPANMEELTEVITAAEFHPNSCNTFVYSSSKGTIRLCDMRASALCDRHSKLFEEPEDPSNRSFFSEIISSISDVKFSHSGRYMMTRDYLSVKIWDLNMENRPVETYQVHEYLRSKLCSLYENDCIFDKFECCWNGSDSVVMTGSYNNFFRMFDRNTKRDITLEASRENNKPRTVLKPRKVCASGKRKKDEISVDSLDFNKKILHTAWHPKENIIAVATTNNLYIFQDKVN
Chain of UniProt P30153 (P67775 whole entry, chain 3 of 3, further chain): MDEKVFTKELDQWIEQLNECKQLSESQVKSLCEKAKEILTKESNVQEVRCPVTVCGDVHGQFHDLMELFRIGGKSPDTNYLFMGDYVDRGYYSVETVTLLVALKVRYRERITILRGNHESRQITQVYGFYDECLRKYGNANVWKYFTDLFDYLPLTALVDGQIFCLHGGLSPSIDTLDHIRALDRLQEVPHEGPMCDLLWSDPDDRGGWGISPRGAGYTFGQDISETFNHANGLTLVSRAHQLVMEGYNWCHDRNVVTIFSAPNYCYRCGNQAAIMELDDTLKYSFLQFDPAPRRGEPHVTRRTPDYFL

- IC50 of inhibition of PP2A:B55 (1 nM) dephosphorylation of DiFMUP (50 uM) [1]: 1100 nM
B1: Eya3 PP2A:B55 interaction domain (aa 62-108) with C-terminal EE (domain or fragment)
chain: RSSNDYTSQMYSAKPYAHILSVPVSETAYPGQTQYQTLQQTQPYAVYEE

- IC50 of inhibition of PP2A:B55 (1 nM) dephosphorylation of DiFMUP (50 uM) [2]: 245 nM
B2: p107 interdomain region (residues 612-687) (domain or fragment)
chain: MPMSPLMHPRVKEVRTDSGSLRRDMQPLSPISVHERYSSPTAGSAKRRLFGEDPPKEMLMDKIITEGTKLKIAPSS
